# Patent US20030166571A1 (SYNVAX, published 2003)
# Numbered stars: 1 amine (or outer) side, 2 acyl side, 3 side chain; on linkers, the order of the positions; unused ones are H or OH. Square brackets hold non-standard residues; d marks the D form. * marks the point of attachment. hPhe(2,4-di-NO2) = 2,4-di-NO2 homophenylalanine, O=C([C@H](CCc1ccc([N+](=O)[O-])cc1[N+](=O)[O-])N[*:1])[*:2]; Phe(4-NHAc) = 4-acetamidophenylalanine, CC(=O)Nc1ccc(C[C@H](N[*:1])C(=O)[*:2])cc1; Phe(4-CH2SO3H) = N[C@@H](Cc1ccc(CS(=O)(=O)O)cc1)C(=O)O; Phe(4-NO2) = N[C@@H](Cc1ccc([N+](=O)[O-])cc1)C(=O)O; Phe(4-CH2NH2) = NCc1ccc(C[C@H](N)C(=O)O)cc1; Tyr(3-Cl) = N[C@@H](Cc1ccc(O)c(Cl)c1)C(=O)O; Dmt = Cc1cc(O)cc(C)c1C[C@H](N)C(=O)O; Dab = NCC[C@H](N)C(=O)O; Dap = NC[C@H](N)C(=O)O; Hexanoyl = CCCCCC(=O)*; Propionyl = CCC(=O)*
# B1: VII-87-B (peptide)
# peptide: Ac-R[Tyr(3-Cl)]YRWR-NH2
# SMILES: CC(=O)N[C@@H](CCCNC(=N)N)C(=O)N[C@@H](Cc1ccc(O)c(Cl)c1)C(=O)N[C@@H](Cc1ccc(O)cc1)C(=O)N[C@@H](CCCNC(=N)N)C(=O)N[C@@H](Cc1c[nH]c2ccccc12)C(=O)N[C@@H](CCCNC(=N)N)C(N)=O
# notes: also called Ac-Arg-Tyr(3-Cl)-Tyr-Arg-Trp-Arg-NH2
# B2: VII-75-B (peptide)
# peptide: Ac-RY[Phe(4-CH2SO3H)]RWR-NH2
# SMILES: CC(=O)N[C@@H](CCCNC(=N)N)C(=O)N[C@@H](Cc1ccc(O)cc1)C(=O)N[C@@H](Cc1ccc(CS(=O)(=O)O)cc1)C(=O)N[C@@H](CCCNC(=N)N)C(=O)N[C@@H](Cc1c[nH]c2ccccc12)C(=O)N[C@@H](CCCNC(=N)N)C(N)=O
# notes: also called Ac-Arg-Tyr-Phe(4-CH2SO3H)-Arg-Trp-Arg-NH2
# B3: VII-77-A (peptide)
# peptide: Ac-RY[Phe(4-NHAc)]RWR-NH2
# SMILES: CC(=O)Nc1ccc(C[C@H](NC(=O)[C@H](Cc2ccc(O)cc2)NC(=O)[C@H](CCCNC(=N)N)NC(C)=O)C(=O)N[C@@H](CCCNC(=N)N)C(=O)N[C@@H](Cc2c[nH]c3ccccc23)C(=O)N[C@@H](CCCNC(=N)N)C(N)=O)cc1
# notes: also called Ac-Arg-Tyr-Phe(4-NHAc)-Arg-Trp-Arg-NH2
# B4: VII-73-A (peptide)
# peptide: Ac-RY[Dmt]RWR-NH2
# SMILES: CC(=O)N[C@@H](CCCNC(=N)N)C(=O)N[C@@H](Cc1ccc(O)cc1)C(=O)N[C@@H](Cc1c(C)cc(O)cc1C)C(=O)N[C@@H](CCCNC(=N)N)C(=O)N[C@@H](Cc1c[nH]c2ccccc12)C(=O)N[C@@H](CCCNC(=N)N)C(N)=O
# notes: also called Ac-Arg-Tyr-Tyr(2,6-di-Me)-Arg-Trp-Arg-NH2
# B5: IV-21-C Propionyl-AYYRWR-NH2 (peptide)
# peptide: Propionyl-AYYRWR-NH2
# SMILES: CCC(=O)N[C@@H](C)C(=O)N[C@@H](Cc1ccc(O)cc1)C(=O)N[C@@H](Cc1ccc(O)cc1)C(=O)N[C@@H](CCCNC(=N)N)C(=O)N[C@@H](Cc1c[nH]c2ccccc12)C(=O)N[C@@H](CCCNC(=N)N)C(N)=O
# B6: IV-31-B Propionyl-RYYRWA-NH2 (peptide)
# peptide: Propionyl-RYYRWA-NH2
# SMILES: CCC(=O)N[C@@H](CCCNC(=N)N)C(=O)N[C@@H](Cc1ccc(O)cc1)C(=O)N[C@@H](Cc1ccc(O)cc1)C(=O)N[C@@H](CCCNC(=N)N)C(=O)N[C@@H](Cc1c[nH]c2ccccc12)C(=O)N[C@@H](C)C(N)=O
# B7: IV-35-B Hexanoyl-RAYRWR-NH2 (peptide)
# peptide: Hexanoyl-RAYRWR-NH2
# SMILES: CCCCCC(=O)N[C@@H](CCCNC(=N)N)C(=O)N[C@@H](C)C(=O)N[C@@H](Cc1ccc(O)cc1)C(=O)N[C@@H](CCCNC(=N)N)C(=O)N[C@@H](Cc1c[nH]c2ccccc12)C(=O)N[C@@H](CCCNC(=N)N)C(N)=O
# B8: IV-23-B Propionyl-RAYRWR-NH2 (peptide)
# peptide: Propionyl-RAYRWR-NH2
# SMILES: CCC(=O)N[C@@H](CCCNC(=N)N)C(=O)N[C@@H](C)C(=O)N[C@@H](Cc1ccc(O)cc1)C(=O)N[C@@H](CCCNC(=N)N)C(=O)N[C@@H](Cc1c[nH]c2ccccc12)C(=O)N[C@@H](CCCNC(=N)N)C(N)=O
# B9: IV-29-B Propionyl-RYYRAR-NH2 (peptide)
# peptide: Propionyl-RYYRAR-NH2
# SMILES: CCC(=O)N[C@@H](CCCNC(=N)N)C(=O)N[C@@H](Cc1ccc(O)cc1)C(=O)N[C@@H](Cc1ccc(O)cc1)C(=O)N[C@@H](CCCNC(=N)N)C(=O)N[C@@H](C)C(=O)N[C@@H](CCCNC(=N)N)C(N)=O
# B10: IV-33-B Hexanoyl-AYYRWR-NH2 (peptide)
# peptide: Hexanoyl-AYYRWR-NH2
# SMILES: CCCCCC(=O)N[C@@H](C)C(=O)N[C@@H](Cc1ccc(O)cc1)C(=O)N[C@@H](Cc1ccc(O)cc1)C(=O)N[C@@H](CCCNC(=N)N)C(=O)N[C@@H](Cc1c[nH]c2ccccc12)C(=O)N[C@@H](CCCNC(=N)N)C(N)=O
# B11: IV-27-B Propionyl-RYYAWR-NH2 (peptide)
# peptide: Propionyl-RYYAWR-NH2
# SMILES: CCC(=O)N[C@@H](CCCNC(=N)N)C(=O)N[C@@H](Cc1ccc(O)cc1)C(=O)N[C@@H](Cc1ccc(O)cc1)C(=O)N[C@@H](C)C(=O)N[C@@H](Cc1c[nH]c2ccccc12)C(=O)N[C@@H](CCCNC(=N)N)C(N)=O
# B12: IV-25-B Propionyl-RYARWR-NH2 (peptide)
# peptide: Propionyl-RYARWR-NH2
# SMILES: CCC(=O)N[C@@H](CCCNC(=N)N)C(=O)N[C@@H](Cc1ccc(O)cc1)C(=O)N[C@@H](C)C(=O)N[C@@H](CCCNC(=N)N)C(=O)N[C@@H](Cc1c[nH]c2ccccc12)C(=O)N[C@@H](CCCNC(=N)N)C(N)=O
# B13: VII-71-B (peptide)
# peptide: Ac-RY[hPhe(2,4-di-NO2)]RWR-NH2
# SMILES: CC(=O)N[C@@H](CCCNC(=N)N)C(=O)N[C@@H](Cc1ccc(O)cc1)C(=O)N[C@@H](CCc1ccc([N+](=O)[O-])cc1[N+](=O)[O-])C(=O)N[C@@H](CCCNC(=N)N)C(=O)N[C@@H](Cc1c[nH]c2ccccc12)C(=O)N[C@@H](CCCNC(=N)N)C(N)=O
# notes: also called Ac-Arg-Tyr-hPhe(2,4-di-NO2)-Arg-Trp-Arg-NH2
# B14: VII-79-A (peptide)
# peptide: Ac-RY[Phe(4-CH2NH2)]RWR-NH2
# SMILES: CC(=O)N[C@@H](CCCNC(=N)N)C(=O)N[C@@H](Cc1ccc(O)cc1)C(=O)N[C@@H](Cc1ccc(CN)cc1)C(=O)N[C@@H](CCCNC(=N)N)C(=O)N[C@@H](Cc1c[nH]c2ccccc12)C(=O)N[C@@H](CCCNC(=N)N)C(N)=O
# notes: also called Ac-Arg-Tyr-Phe(4-CH2NH2)-Arg-Trp-Arg-NH2
# B15: VII-63-B (peptide)
# peptide: Ac-RY[Phe(4-NO2)]RWR-NH2
# SMILES: CC(=O)N[C@@H](CCCNC(=N)N)C(=O)N[C@@H](Cc1ccc(O)cc1)C(=O)N[C@@H](Cc1ccc([N+](=O)[O-])cc1)C(=O)N[C@@H](CCCNC(=N)N)C(=O)N[C@@H](Cc1c[nH]c2ccccc12)C(=O)N[C@@H](CCCNC(=N)N)C(N)=O
# notes: also called Ac-Arg-Tyr-Phe(4-NO2)-Arg-Trp-Arg-NH2
# B16: VII-67-A (peptide)
# peptide: Ac-[Dab]YYRWR-NH2
# SMILES: CC(=O)N[C@@H](CCN)C(=O)N[C@@H](Cc1ccc(O)cc1)C(=O)N[C@@H](Cc1ccc(O)cc1)C(=O)N[C@@H](CCCNC(=N)N)C(=O)N[C@@H](Cc1c[nH]c2ccccc12)C(=O)N[C@@H](CCCNC(=N)N)C(N)=O
# notes: also called Ac-Dab-Tyr-Tyr-Arg-Trp-Arg-NH2
# B17: VII-65-F (peptide)
# peptide: Ac-[Dap]YYRWR-NH2
# SMILES: CC(=O)N[C@@H](CN)C(=O)N[C@@H](Cc1ccc(O)cc1)C(=O)N[C@@H](Cc1ccc(O)cc1)C(=O)N[C@@H](CCCNC(=N)N)C(=O)N[C@@H](Cc1c[nH]c2ccccc12)C(=O)N[C@@H](CCCNC(=N)N)C(N)=O
# notes: also called Ac-Dap-Tyr-Tyr-Arg-Trp-Arg-NH2
# Key:
# [1] = molecular target: T1, human ORL-1 receptor (opioid receptor like 1) (human, UniProt P41146 1-370); assay: [3H]nociceptin displacement, membranes of CHO cells transfected with human ORL-1; Ki=IC50/(1+L/Kd)
# T1 construct: whole, on cells; Assays were run on membranes of CHO cells transfected with human ORL-1; also called opiate receptor like 1; nociceptin receptor
# Method: Receptor binding studies were conducted on human ORL1 (opiate receptor like 1) transfected into Chinese hamster ovary (CHO) cells using each of the hexapeptide analog compounds of Table 3. All the compounds were evaluated for binding affinities. […] The data shown in Table 5 represents the average±SEM of at least two experiments conducted in triplicate.
# Cells are removed from the plates by scraping with a rubber policeman, and then homogenized in Tris buffer using a Polytron homogenizer. Following this homogenization step, the cellular mixture is centrifuged once and washed by an additional centrifugation at 40,000×g for 15 min. The pellet formed during the centrifugation is re-suspended in 50 mM Tris, pH 7.5. […] Samples of the suspension are then filtered over glass fiber filters using a Wallac cell harvester.
# For the data in Table 5, binding was conducted as described above. IC₅₀ values and Hill coefficients were determined using the curve-fitting program Prism. K₁ values were calculated using the equation K₁=IC₅₀/(1+[L]/Kd). […] The data in Table 5 represent the average±SEM of at least two experiments conducted in triplicate.
# [2] = molecular target: T1, human ORL-1 receptor (opioid receptor …); assay: cell-based or functional assay
# [3] = molecular target: T1, human ORL-1 receptor (opioid receptor …); assay: binding assay at ORL1 (taken as [3H]nociceptin displacement as in Table 1)
# T1 sequence (P41146 whole entry): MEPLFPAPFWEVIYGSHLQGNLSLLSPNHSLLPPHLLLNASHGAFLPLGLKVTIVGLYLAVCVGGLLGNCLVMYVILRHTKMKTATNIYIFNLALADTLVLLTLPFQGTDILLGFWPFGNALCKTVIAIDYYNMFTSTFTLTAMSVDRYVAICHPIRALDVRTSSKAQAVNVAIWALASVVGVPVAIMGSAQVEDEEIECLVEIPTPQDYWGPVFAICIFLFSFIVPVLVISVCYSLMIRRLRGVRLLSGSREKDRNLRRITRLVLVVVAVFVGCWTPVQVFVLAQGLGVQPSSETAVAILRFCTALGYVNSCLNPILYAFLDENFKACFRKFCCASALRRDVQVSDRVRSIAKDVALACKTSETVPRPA
Binder,Ki [1] [nM],% Stimulation of [35S]GTPγS binding [2] [%],EC50 (nM) of stimulation of [35S]GTPγS binding [2] [nM],IC50 [3] [nM]
B1,0.26,72,3.9,–
B2,26.7,< 20,–,–
B3,0.88,19,115,–
B4,0.04,52.7,5.2,–
B5,–,–,–,1780
B6,–,–,–,76
B7,–,–,–,113
B8,–,–,–,182
B9,–,–,–,1890
B10,–,–,–,1020
B11,–,–,–,400
B12,–,–,–,495
B13,0.63,33.6,7.5,–
B14,2.54,< 20,–,–
B15,0.17,43.2,3.2,–
B16,5.59,< 20,–,–
B17,28.1,13.7,–,–
